Laboratory results as given in article PMC5241739, “Structure of the Toll/Interleukin-1 Receptor (TIR) Domain of the B-cell Adaptor That Links Phosphoinositide Metabolism with the Negative Regulation of the Toll-like Receptor (TLR) Signalosome*^([image sbox.jpg])” (The Journal of Biological Chemistry, 2016).

Target: the molecule itself
Assay: AUC; sedimentation velocity, Beckman XL-A, 0.3 to 1 mg/ml, 30,000–40,000 rpm, c(S) and c(M) analysis with SEDFIT

B1: BCAP330, the first 330 residues of BCAPL (domain or fragment, human, UniProt Q6ZUJ8-1 1-330, looked up)
chain: MAASGVPRGCDILIVYSPDAEEWCQYLQTLFLSSRQVRSQKILTHRLGPEASFSAEDLSLFLSTRCVVVLLSAELVQHFHKPALLPLLQRAFHPPHRVVRLLCGVRDSEEFLDFFPDWAHWQELTCDDEPETYVAAVKKAISEDSGCDSVTDTEPEDEKVVSYSKQQNLPTVTSPGNLMVVQPDRIRCGAETTVYVIVRCKLDDRVATEAEFSPEDSPSVRMEAKVENEYTISVKAPNLSSGNVSLKIYSGDLVVCETVISYYTDMEEIGNLLSNAANPVEFMCQAFKIVPYNTETLDKLLTESLKNNIPASGLHLFGINQLEEEDMMTN
notes: B-cell adaptor for phosphoinositide 3-kinase (BCAP), human, the N-terminal 330 residues (TIR and DBB domains); also called N-terminal variant; source: cloned into pMCSG7, purified (StrepTrap, S200 size exclusion)
  stoichiometry N: 2

B2: BCAPS, splice variant of BCAP (natural protein, human, UniProt Q6ZUJ8-2 1-627, looked up)
chain: MVVQPDRIRCGAETTVYVIVRCKLDDRVATEAEFSPEDSPSVRMEAKVENEYTISVKAPNLSSGNVSLKIYSGDLVVCETVISYYTDMEEIGNLLSNAANPVEFMCQAFKIVPYNTETLDKLLTESLKNNIPASGLHLFGINQLEEEDMMTNQRDEELPTLLHFAAKYGLKNLTALLLTCPGALQAYSVANKHGHYPNTIAEKHGFRDLRQFIDEYVETVDMLKSHIKEELMHGEEADAVYESMAHLSTDLLMKCSLNPGCDEDLYESMAAFVPAATEDLYVEMLQASTSNPIPGDGFSRATKDSMIRKFLEGNSMGMTNLERDQCHLGQEEDVYHTVDDDEAFSVDLASRPPVPVPRPETTAPGAHQLPDNEPYIFKVFAEKSQERPGNFYVSSESIRKGPPVRPWRDRPQSSIYDPFAGMKTPGQRQLITLQEQVKLGIVNVDEAVLHFKEWQLNQKKRSESFRFQQENLKRLRDSITRRQREKQKSGKQTDLEITVPIRHSQHLPAKVEFGVYESGPRKSVIPPRTELRRGDWKTDSTSSTASSTSNRSSTRSLLSVSSGMEGDNEDNEVPEVTRSRSPGPPQVDGTPTMSLERPPRVPPRAASQRPPTRETFHPPPPVPPRGR
notes: The first residue is worked out from the legend's words 'lacks the first 180 amino acids'; source: cloned into pMCSG7, purified (StrepTrap, S200 size exclusion)
  stoichiometry N: 2

B3: Full-length BCAP, BCAPL (1–805) (natural protein, human, UniProt Q6ZUJ8-1 1-805, looked up)
chain: MAASGVPRGCDILIVYSPDAEEWCQYLQTLFLSSRQVRSQKILTHRLGPEASFSAEDLSLFLSTRCVVVLLSAELVQHFHKPALLPLLQRAFHPPHRVVRLLCGVRDSEEFLDFFPDWAHWQELTCDDEPETYVAAVKKAISEDSGCDSVTDTEPEDEKVVSYSKQQNLPTVTSPGNLMVVQPDRIRCGAETTVYVIVRCKLDDRVATEAEFSPEDSPSVRMEAKVENEYTISVKAPNLSSGNVSLKIYSGDLVVCETVISYYTDMEEIGNLLSNAANPVEFMCQAFKIVPYNTETLDKLLTESLKNNIPASGLHLFGINQLEEEDMMTNQRDEELPTLLHFAAKYGLKNLTALLLTCPGALQAYSVANKHGHYPNTIAEKHGFRDLRQFIDEYVETVDMLKSHIKEELMHGEEADAVYESMAHLSTDLLMKCSLNPGCDEDLYESMAAFVPAATEDLYVEMLQASTSNPIPGDGFSRATKDSMIRKFLEGNSMGMTNLERDQCHLGQEEDVYHTVDDDEAFSVDLASRPPVPVPRPETTAPGAHQLPDNEPYIFKVFAEKSQERPGNFYVSSESIRKGPPVRPWRDRPQSSIYDPFAGMKTPGQRQLITLQEQVKLGIVNVDEAVLHFKEWQLNQKKRSESFRFQQENLKRLRDSITRRQREKQKSGKQTDLEITVPIRHSQHLPAKVEFGVYESGPRKSVIPPRTELRRGDWKTDSTSSTASSTSNRSSTRSLLSVSSGMEGDNEDNEVPEVTRSRSPGPPQVDGTPTMSLERPPRVPPRAASQRPPTRETFHPPPPVPPRGR
notes: B-cell adaptor for phosphoinositide 3-kinase (BCAP), human, full-length form BCAPL, residues 1-805; Cloned into the same vector as the His6-tagged TIR domain; source: cloned into pMCSG7, purified (StrepTrap, S200 size exclusion)
  stoichiometry N: 2
